Measurements reported in patent US20250051409A1, “MODULATORS OF PHOSPHATIDYLSERlNE DECARBOXYLASE AND USE THEREOF” (THE NATIONAL INSTITUTE FOR BIOTECHNOLOGY IN THE NEGEV LTD., priority 2021, published 2025).
pKd: −log10 of the molar value.

Biological target: Human recombinant SMAC (10339-H08E), Sino Biologicals (human) (UniProt Q9NR28)
Experiment: microscale thermophoresis; fluorescently labelled SMAC (1 µM) with purified PSD (78-625 nM)

Chain of Human recombinant SMAC (10339-H08E), Sino Biologicals (human) (Q9NR28 56-239 limits assumed, stated change not applied): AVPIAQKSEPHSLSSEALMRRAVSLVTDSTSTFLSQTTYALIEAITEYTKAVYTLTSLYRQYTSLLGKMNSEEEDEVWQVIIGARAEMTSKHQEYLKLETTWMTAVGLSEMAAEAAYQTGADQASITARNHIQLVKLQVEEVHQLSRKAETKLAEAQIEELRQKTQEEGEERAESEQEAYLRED

Work on “Purified recombinant protein (full length) of human phosphatidylserine decarboxylase (PSD), with N-terminal His tag, expressed in E. coli (Acris-OriGene) (from UniProt Q58DH2 60-416) (enzyme)” yielded a pKd of 6.61.
